{"source": "patent US20240226321A1", "about": "(ANJARIUM BIOSCIENCES, published 2024)", "target": "T1, FcRn of the Lumit FcRn Binding Immunoassay (Promega) (UniProt P55899 24-297; P61769 21-119, limits assumed)", "T1 construct": "Bought kit reagent ('split FcRn/Tracer'); also called split FcRn", "T1 sequence (P55899 24-297 limits assumed, form in doubt, chain 1 of 2)": "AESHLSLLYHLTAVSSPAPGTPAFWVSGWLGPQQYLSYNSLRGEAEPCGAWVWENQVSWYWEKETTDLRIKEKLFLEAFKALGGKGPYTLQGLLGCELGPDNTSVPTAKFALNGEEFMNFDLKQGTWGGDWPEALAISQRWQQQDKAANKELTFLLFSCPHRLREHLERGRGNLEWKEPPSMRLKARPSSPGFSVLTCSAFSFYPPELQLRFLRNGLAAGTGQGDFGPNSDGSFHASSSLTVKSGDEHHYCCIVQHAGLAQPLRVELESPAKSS", "T1 sequence (P61769 21-119 limits assumed, form in doubt, chain 2 of 2)": "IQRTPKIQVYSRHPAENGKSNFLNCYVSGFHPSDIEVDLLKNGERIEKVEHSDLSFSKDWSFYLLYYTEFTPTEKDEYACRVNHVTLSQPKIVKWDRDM", "test": "Lumit FcRn Binding Immunoassay (Promega), serial dilution of EVs competing with the kit's Tracer for FcRn, luminescence as fraction of max signal", "description": "A Lumit™ FcRn Binding Immunoassay (Promega) assay was performed with purified EVs described in Example 1 and native Hek293 EVs. […] Detection reagent was added and luminescence was detected on a plate reader.", "data": [{"binder": "targeting monobody-linker1-modified monomeric Fc-linker2-EphB2 scaffold-linker3-turboluc fusion protein, displayed on purified EVs (Fc fusion, also called EVs expressing the modified Fc domain) VSDVPRDLEVVAATPTSLLISWYYPFCAFYYRITYGETGGNSPVQEFTVPRSPDTATISGLKPGVDYTITVYAVTCLGSYSRPISINYRTGGGGSGGGGSGGAPEAAGGPSVFLFPPKPKDTLMISRTPEVTCVVVDVSHEDPEVKFNWYVDGVEVHNAKTKPREEQYNSTYRVVSVLTVLHQDWLNGKEYKCKVSNKALGAPIEKTISKAKGQPREPQVYTKPPSRDELTKNQVSLSCLVKGFYPSDIAVEWESNGQPENNYKTTVPVLDSDGSFRLASYLTVDKSRWQQGNVFSCSVMHEALHNHYTQKSLSLSPGGGSGGGSGGGSGGGSRKCPRIIQNGAIFQETLSGAESTSLVAARGSCIANAEEVDVPIKLYCNGDGEWLVPIGRCMCKAGFEAVENGTVCRGCPSGTFKANQGDEACTHCPINSRTTSEGATNCVCRNGYYRADLDPLDMPCTTIPSAPQAVISSVNETSLMLEWTPPRDSGGREDAVYNIICKSCGSGRGACTRCGDNVQYAPRQLGLTEPRIYASDLLAHTQYTFEIQAVNGVTDQSPFSPQFASVNITTNQAAPSAVSIMHQVSRTVDSITLSWSQPDQPNGVILDYELQYYEKELSEYNATAIKSPTNTVTVQGLKAGAIYVFQVRARTVAGYGRYSGKMYFQTMTEAEYQTEIQEKLPLIIGSSAAGLVFLIAVVVISIVCNRRGFERADSEYTDKLQHYTSGHMTPGMKIYIDPFTYEDPNEAVREFAKEIDISCVKIEQVIGAGEFGEVCSGHLKLPGKREIFVAIKTLKSGYTEKQRRDFLSEASIMGQFDHPNVIHLEGVVTKSTPVMIITEFMENGSLDSFLRQNDGQFTVIQLVGMLRGIAAGMKYLADMNYVHRDLAARNILVNSNLVCKVSDFGLSRFLEDDTSDPTYTSALGGKIPIRWTAPEAIQYRKFTSASDVWSYGIVMWEVMSFGERPYWDMTNQDVINAIEQDYRLPPPMDCPSALHQLMLDCWQKDRNHRPKFGQIVNTLDKMIRNPNSLKAMAPLSSGINLPLGGGEAEAERGKLPGKKLPLEVLIELEANARKAGCTRGCLICLSKIKCTAKMKKYIPGRCADYGGDKKTGQAGIVGAIVDIPEISGFKEMEPMEQFIAQVDRCADCTTGCLKGLANVKCSDLLKKWLPGRCATFADKIQSEVDNIKGLAGD", "values": [{"measurement": "IC50 (read off the curve)", "result": "~200", "unit": "pM"}]}]}
